{
  "source": "paper PMC5418926",
  "about": "“A Functional Role for the Monomethylated Gln-51 and Lys-53 Residues of the 49GGQTK53 Motif of eL42 from Human 80S Ribosomes” (The Open Biochemistry Journal, 2017)",
  "molecular_target": "human recombinant eL42-Δ(GGQTK) variant, His-tagged (human, UniProt P83881 1-106, Δ(GGQTK), residues 49-GGQTK-53 deleted)",
  "test": "SPR; Biacore 3000; His-tagged eL42 species immobilised by amine coupling on a CM5 chip; eRF1 or EF-3 as analyte; 25°C, HBS-EP (10 mM HEPES pH 7.4, 150 mM NaCl, 3 mM EDTA, 0.005% P20), 5 µL/min; 1:1 Langmuir fit; mean of 3 experiments",
  "conditions": "both partners purified",
  "data": [
    {"binder": "elongation factor 3 (EF-3) from S. cerevisiae, His-tagged (natural protein, UniProt P16521 1-1044, looked up, S. cerevisiae elongation factor 3; The expression strain was a gift of Maria Mateyak; also called eEF-3; yeast EF-3; source: E. coli TKBL40 (BL21, His-tagged eEF-3 in pET11a), purified (His GraviTrap)) MSDSQQSIKVLEELFQKLSVATADNRHEIASEVASFLNGNIIEHDVPEHFFGELAKGIKDKKTAANAMQAVAHIANQSNLSPSVEPYIVQLVPAICTNAGNKDKEIQSVASETLISIVNAVNPVAIKALLPHLTNAIVETNKWQEKIAILAAISAMVDAAKDQVALRMPELIPVLSETMWDTKKEVKAAATAAMTKATETVDNKDIERFIPSLIQCIADPTEVPETVHLLGATTFVAEVTPATLSIMVPLLSRGLNERETGIKRKSAVIIDNMCKLVEDPQVIAPFLGKLLPGLKSNFATIADPEAREVTLRALKTLRRVGNVGEDDAIPEVSHAGDVSTTLQVVNELLKDETVAPRFKIVVEYIAAIGADLIDERIIDQQAWFTHITPYMTIFLHEKKAKDILDEFRKRAVDNIPVGPNFDDEEDEGEDLCNCEFSLAYGAKILLNKTQLRLKRARRYGICGPNGCGKSTLMRAIANGQVDGFPTQEECRTVYVEHDIDGTHSDTSVLDFVFESGVGTKEAIKDKLIEFGFTDEMIAMPISALSGGWKMKLALARAVLRNADILLLDEPTNHLDTVNVAWLVNYLNTCGITSITISHDSVFLDNVCEYIINYEGLKLRKYKGNFTEFVKKCPAAKAYEELSNTDLEFKFPEPGYLEGVKTKQKAIVKVTNMEFQYPGTSKPQITDINFQCSLSSRIAVIGPNGAGKSTLINVLTGELLPTSGEVYTHENCRIAYIKQHAFAHIESHLDKTPSEYIQWRFQTGEDRETMDRANRQINENDAEAMNKIFKIEGTPRRIAGIHSRRKFKNTYEYECSFLLGENIGMKSERWVPMMSVDNAWIPRGELVESHSKMVAEVDMKEALASGQFRPLTRKEIEEHCSMLGLDPEIVSHSRIRGLSGGQKVKLVLAAGTWQRPHLIVLDEPTNYLDRDSLGALSKALKEFEGGVIIITHSAEFTKNLTEEVWAVKDGRMTPSGHNWVSGQGAGPRIEKKEDEEDKFDAMGNKIAGGKKKKKLSSAELRKKKKERMKKKKELGDAYVSSDEEF", "values": [
      {"measurement": "Kd", "result": 9.2, "unit": "µM"}
    ]}
  ]
}
